Measured values from PMC2756985 (Biochemistry, 2009).

Assay: Oxygen dissociation rates of DevS proteins, stopped flow
Assay type: binding, Mycobacterium tuberculosis

B1: full-length Y171F DevS (protein, UniProt P9WGK3 1-578, looked up, variant Y171F)
chain: MTTGGLVDENDGAAMRPLRHTLSQLRLHELLVEVQDRVEQIVEGRDRLDGLVEAMLVVTAGLDLEATLRAIVHSATSLVDARYGAMEVHDRQHRVLHFVYEGIDEETVRRIGHLPKGLGVIGLLIEDPKPLRLDDVSAHPASIGFPPYHPPMRTFLGVPVRVRDESFGTLFLTDKTNGQPFSDDDEVLVQALAAAAGIAVANARLYQQAKARQSWIEATRDIATELLSGTEPATVFRLVAAEALKLTAADAALVAVPVDEDMPAADVGELLVIETVGSAVASIVGRTIPVAGAVLREVFVNGIPRRVDRVDLEGLDELADAGPALLLPLRARGTVAGVVVVLSQGGPGAFTDEQLEMMAAFADQAALAWQLATSQRRMRELDVLTDRDRIARDLHDHVIQRLFAIGLALQGAVPHERNPEVQQRLSDVVDDLQDVIQEIRTTIYDLHGASQGITRLRQRIDAAVAQFADSGLRTSVQFVGPLSVVDSALADQAEAVVREAVSNAVRHAKASTLTVRVKVDDDLCIEVTDNGRGLPDEFTGSGLTNLRQRAEQAGGEFTLASVPGASGTVLRWSAPLSQ
modifications: full-length
  O2 koff: 3.85 ± 0.69 ^b s^−1
